Reference: the Human Domainome abundance scans (Beltran et al. 2025)
± gives the uncertainty stated by the source.

B1: Transitional endoplasmic reticulum ATPase, residues 26 to 106; numbered along this chain, P55072 (parent)
chain: LIVDEAINEDNSVVSLSQPKMDELQLFRGDTVLLKGKKRREAVCIVLSDDTCSDEKIRMNRVVRNNLRVRLGDVISIQPCP

Variants of: B1
Test: abundance fitness (aPCA) (normalised: wild type 0, dead -1); higher = more abundant; growth selection in yeast, the domain comes from the species named
Settings: Homo sapiens
In the case of C52H, the abundance fitness is reported as -0.452 ± 0.26. In the case of C52W, the abundance fitness is reported as -0.728 ± 0.11. In the case of V69T, the abundance fitness is reported as -0.12 ± 0.079. With V69G the abundance fitness was -0.886 ± 0.097. In the case of V69P, the abundance fitness is reported as -1.03 ± 0.3. V69S gave an abundance fitness of -0.255 ± 0.072. G36E showed an abundance fitness of -0.191 ± 0.15. Variant G36C has an abundance fitness of 0.015 ± 0.083. For G36T, the abundance fitness was -0.042 ± 0.096. In the case of G36N, the abundance fitness is reported as 0.058 ± 0.13. Variant L71Q has an abundance fitness of -0.028 ± 0.076. Variant L71E has an abundance fitness of 0.07 ± 0.069. Variant L71I has an abundance fitness of 0.045 ± 0.13. With E41T the abundance fitness was -0.123 ± 0.098. For E41L, the abundance fitness was -0.296 ± 0.062. Work on E41G yielded an abundance fitness of -0.269 ± 0.061. Variant R70S has an abundance fitness of 0.036 ± 0.062. Work on R70P yielded an abundance fitness of -0.327 ± 0.094. With R70A the abundance fitness was 0.043 ± 0.062. With R70L the abundance fitness was 0.037 ± 0.06. In the case of R70G, the abundance fitness is reported as 0.049 ± 0.056. Variant I57L has an abundance fitness of -0.224 ± 0.066. For I57T, the abundance fitness was -0.622 ± 0.11. Work on I57C yielded an abundance fitness of -0.492 ± 0.16. For D30Y, the abundance fitness was -0.732 ± 0.2. With D30I the abundance fitness was -0.68 ± 0.29. Work on D30R yielded an abundance fitness of -0.258 ± 0.05. With D30H the abundance fitness was -0.11 ± 0.12. With T31P the abundance fitness was -0.204 ± 0.076. Work on T31A yielded an abundance fitness of -0.089 ± 0.038. T31I gave an abundance fitness of -0.235 ± 0.13. In the case of T31W, the abundance fitness is reported as -0.134 ± 0.087. In the case of T31V, the abundance fitness is reported as -0.104 ± 0.049. T31D gave an abundance fitness of -0.27 ± 0.1. For T31L, the abundance fitness was -0.129 ± 0.061. With T31M the abundance fitness was -0.004 ± 0.13. With V32Q the abundance fitness was -0.785 ± 0.18. For V32M, the abundance fitness was -0.166 ± 0.1. With V32I the abundance fitness was -0.016 ± 0.07. V32T showed an abundance fitness of -0.827 ± 0.19. C80F showed an abundance fitness of -0.067 ± 0.054. For C80T, the abundance fitness was -0.038 ± 0.091. C80R showed an abundance fitness of -0.066 ± 0.071. With A6V the abundance fitness was -0.133 ± 0.037. Variant A6W has an abundance fitness of -0.006 ± 0.064. A6R showed an abundance fitness of -0.084 ± 0.053. With V14K the abundance fitness was -0.856 ± 0.32. Work on V14A yielded an abundance fitness of -0.341 ± 0.048. V14C gave an abundance fitness of -0.11 ± 0.069. V14T gave an abundance fitness of -0.743 ± 0.11. In the case of V14W, the abundance fitness is reported as -0.816 ± 0.13. V14I showed an abundance fitness of 0.042 ± 0.084. P81G showed an abundance fitness of -0.451 ± 0.22. With P81I the abundance fitness was -0.174 ± 0.15. P81L showed an abundance fitness of -0.405 ± 0.21. V3D gave an abundance fitness of -0.529 ± 0.41. Work on V3W yielded an abundance fitness of -0.952 ± 0.17. With N65H the abundance fitness was -0.038 ± 0.11. Work on N65A yielded an abundance fitness of -0.026 ± 0.067. N65W showed an abundance fitness of -0.157 ± 0.068. Variant N65V has an abundance fitness of -0.131 ± 0.063. Work on N65M yielded an abundance fitness of -0.054 ± 0.1. Work on V43G yielded an abundance fitness of -0.289 ± 0.06. V43K showed an abundance fitness of -0.006 ± 0.13. V43M showed an abundance fitness of 0.098 ± 0.14. In the case of R39W, the abundance fitness is reported as -0.08 ± 0.094. With R39I the abundance fitness was -0.082 ± 0.17. With R39T the abundance fitness was 0.013 ± 0.1. With R39S the abundance fitness was 0.016 ± 0.05. For R39N, the abundance fitness was -0.17 ± 0.11. In the case of R39C, the abundance fitness is reported as 0.034 ± 0.13. V46R gave an abundance fitness of -0.951 ± 0.15. In the case of V46T, the abundance fitness is reported as -0.147 ± 0.085. Work on V46D yielded an abundance fitness of -0.804 ± 0.17. Work on G72Y yielded an abundance fitness of -0.256 ± 0.23. G72T showed an abundance fitness of -0.037 ± 0.1. G72M showed an abundance fitness of -0.392 ± 0.12. With R64T the abundance fitness was -0.381 ± 0.096. R64G showed an abundance fitness of -0.638 ± 0.08. With R64A the abundance fitness was -0.023 ± 0.055. In the case of R64W, the abundance fitness is reported as -0.684 ± 0.18. Variant R64K has an abundance fitness of -0.365 ± 0.11. With R68L the abundance fitness was -0.033 ± 0.057. In the case of R68W, the abundance fitness is reported as -0.169 ± 0.097. For R68H, the abundance fitness was -0.009 ± 0.13. For R68D, the abundance fitness was -0.064 ± 0.12. With R68T the abundance fitness was -0.14 ± 0.09. With R68N the abundance fitness was -0.123 ± 0.14. R68C showed an abundance fitness of -0.114 ± 0.14. In the case of R68F, the abundance fitness is reported as -0.165 ± 0.14. For I77H, the abundance fitness was -0.842 ± 0.47. I77C showed an abundance fitness of -0.074 ± 0.2. With I77F the abundance fitness was -0.259 ± 0.11. With I77L the abundance fitness was 0.013 ± 0.057. L1F gave an abundance fitness of 0.15 ± 0.13. Work on L1S yielded an abundance fitness of -0.264 ± 0.075. L1R showed an abundance fitness of -0.744 ± 0.23. Work on L1M yielded an abundance fitness of -0.046 ± 0.16. In the case of L1A, the abundance fitness is reported as -0.126 ± 0.11. With S76I the abundance fitness was -0.173 ± 0.13. Work on S76A yielded an abundance fitness of -0.036 ± 0.073. With S76L the abundance fitness was -0.112 ± 0.06. For S76H, the abundance fitness was 0 ± 0.17. S76W gave an abundance fitness of -0.207 ± 0.082. For E55M, the abundance fitness was -0.143 ± 0.097. Work on E55H yielded an abundance fitness of -0.041 ± 0.11. In the case of E55K, the abundance fitness is reported as -0.03 ± 0.11. E55D showed an abundance fitness of -0.174 ± 0.13. For E55Y, the abundance fitness was -0.029 ± 0.099. With M59V the abundance fitness was -0.166 ± 0.11. For M59K, the abundance fitness was -1.03 ± 0.21. M59A gave an abundance fitness of -0.258 ± 0.086. M59E gave an abundance fitness of -0.768 ± 0.43. With T51I the abundance fitness was -0.19 ± 0.11. In the case of T51E, the abundance fitness is reported as 0.05 ± 0.07. With T51G the abundance fitness was -0.024 ± 0.045. T51N gave an abundance fitness of 0.126 ± 0.14. For E9K, the abundance fitness was -0.216 ± 0.079. In the case of E9S, the abundance fitness is reported as 0.043 ± 0.061. E9Y gave an abundance fitness of -0.129 ± 0.13. With E9N the abundance fitness was 0.184 ± 0.24. In the case of E9Q, the abundance fitness is reported as -0.127 ± 0.12. Work on N60D yielded an abundance fitness of -0.077 ± 0.092. N60F showed an abundance fitness of -0.889 ± 0.16. In the case of N60L, the abundance fitness is reported as -0.756 ± 0.13. In the case of N60T, the abundance fitness is reported as -0.019 ± 0.08. In the case of N60C, the abundance fitness is reported as -0.182 ± 0.16. With N60R the abundance fitness was -0.325 ± 0.073. For G29L, the abundance fitness was -0.209 ± 0.061. With G29E the abundance fitness was -0.198 ± 0.063. Variant G29P has an abundance fitness of -1.06 ± 0.28. Work on G29W yielded an abundance fitness of -0.268 ± 0.062. For E5T, the abundance fitness was -0.1 ± 0.058. E5L showed an abundance fitness of -0.107 ± 0.041. Variant E5G has an abundance fitness of -0.032 ± 0.051. For E5V, the abundance fitness was -0.068 ± 0.041. Q78P showed an abundance fitness of -0.256 ± 0.24. Q78N gave an abundance fitness of 0.063 ± 0.48. N11L gave an abundance fitness of -0.007 ± 0.053. Work on N11K yielded an abundance fitness of -0.084 ± 0.12. N11M gave an abundance fitness of -0.029 ± 0.072. In the case of K35Y, the abundance fitness is reported as -0.229 ± 0.21. K35W gave an abundance fitness of -0.154 ± 0.17. For K35T, the abundance fitness was 0.117 ± 0.094. In the case of K35L, the abundance fitness is reported as -0.058 ± 0.086. S17H gave an abundance fitness of -0.396 ± 0.38. S17K gave an abundance fitness of -0.361 ± 0.097. S17C gave an abundance fitness of -0.381 ± 0.11. In the case of S17P, the abundance fitness is reported as -0.365 ± 0.069. With D54I the abundance fitness was -0.106 ± 0.14. For D54K, the abundance fitness was 0.08 ± 0.085. For D54P, the abundance fitness was -0.116 ± 0.072. For L24K, the abundance fitness was -0.98 ± 0.2. L24V gave an abundance fitness of -0.429 ± 0.041. In the case of L24Y, the abundance fitness is reported as -0.224 ± 0.093. Variant L24F has an abundance fitness of -0.321 ± 0.11. L24N showed an abundance fitness of -0.47 ± 0.19. Work on N66F yielded an abundance fitness of -0.263 ± 0.083. N66M showed an abundance fitness of -0.04 ± 0.14. Work on N66T yielded an abundance fitness of 0.007 ± 0.11. In the case of C44Y, the abundance fitness is reported as -0.091 ± 0.13. Variant C44S has an abundance fitness of -0.032 ± 0.069. For C44D, the abundance fitness was -0.707 ± 0.14. With C44A the abundance fitness was -0.017 ± 0.062. With Q25R the abundance fitness was -0.081 ± 0.053. For Q25N, the abundance fitness was 0.038 ± 0.098. In the case of Q25T, the abundance fitness is reported as -0.102 ± 0.062.
